The DeepSol protein solubility set

Assay: soluble on expression in E. coli; label from the status in PepcDB or PDB records
With “MASEDKFESVLSTRYCKNSPLVSILSETNKATLWRQLWIWLAEAEKELGLKQVTQDAIDEMKSNRDVFDWPFIRSEERKLKHDVMAHNHAFGKLCPTAAGIIHLGATSCFVQDNADLIAYRDSIDHILKRFATVIDRLAAFSLKNKEVVTVGRTHYQTASLVTVGKRGVLWAQELLMAFQSLSEFRDKMRFRGIKGATGTQDSFLTLFAGDESKVEALDELVTKKANFSNRFLITGQTYSRQQDSQLVFSLSLLGAAAKKVCTDIRVLQAFGELLEPFEKDQIGSSAMPYKKNPMKSERCCALSRKLINAPQEALTILADQGLERTLDDSAGRRMLIPDVLLTAEALLTTLQNIFEGLSVQTDNVKKIVEDEIAFLGLEKAMMMLTEEGVDRQQAHAVIRKTALEAKQLQATQKVDIRQTMADPFFDSVRDRVVGLVNNPINFTGRCVSQTESFIAKELKPTIDKYLDKSAGNVQLDV” the “soluble on expression in E. coli” value was “soluble”.
In the case of “MGKFFFFGFVGLLLSWGALYYRYSDEKNTSARKYRFDPPPALVGNLFINAGLEKAEHILDGKIVGPESMVVDDEAIYVSVNDAKVLKIVDGRVVSKASYSEKSKFFPDCGHFDTEPECGRPLGIRRLVAGKPKFVVCDAYLGVYIVDFTDEQNPISTQILDSKVPIDGLKPRFLNDLDVISEDELIISDSSTRHDRRHFMAAILEHQADGRIFHLKISTKSVKVLADKLYFPNGIQLTEDKKSVIFAECSMARIKKLTIASKKVEMFAANLPGLPDNIRSSGRGTYWVGLTATRSATHPSLLDRLGSLPGIRQFLVDIVPGPYWKPLLGLFKNPHSIIIELDSVGKIVRSLHDVTGKHVGDASQVTEHNGHLYIGSFADHYIAKVKL”, the “soluble on expression in E. coli” value is reported as “not soluble”.
With “MSLMKFIIKLFPEITIKSQSVRLRFIKILTGNIRNVLKHYDETLAVVRHWDNIEVRAKDENQRLAIRDALTRIPGIHHILEVEDVPFTDMHDIFEKALVQYRDQLEGKTFCVRVKRRGKHDFSSIDVERYVGGGLNQHIESARVKLTNPDVTVHLEVEDDRLLLIKGRYEGIGGFPIGTQEDVLSLISGGFDSGVSSYMLMRRGCRVHYCFFNLGGAAHEIGVRQVAHYLWNRFGSSHRVRFVAINFEPVVGEILEKIDDGQMGVILKRMMVRAASKVAERYGVQALVTGEALGQVSSQTLTNLRLIDNVSDTLILRPLISYDKEHIINLARQIGTEDFARTMPEYCGVISKSPTVKAVKSKIEAEEEKFDFSILDKVVEEANNVDIREIAQQTEQEVVEVETVNGFGPNDVILDIRSIDEQEDKPLKVEGIDVVSLPFYKLSTKFGDLDQNKTWLLWCERGVMSRLQALYLREQGFNNVKVYRPEGGSHHHHHH” the “soluble on expression in E. coli” value was “soluble”.
In the case of “MNVWSKLLTALRGGANEAGEALVDSQALRILDQEIRDADQELRKSKEALAEIMARQKLAAERANGSAAKIAEYESYALKALEAGNEALAQEVAQKIANLENDLAVEREQADGFAASVAQLRKAVTQAEGNIKHLKQQVDTVKATESVQKAQQAVAQRYGGSQSKLHTAVESLERIKQKQAERAAKMDAAAELANTSSPDDALDAKLREAGIVAGSTSADSVLARLKDRSKSLEHHHHHH”, the “soluble on expression in E. coli” value is reported as “not soluble”.
With “MAHHHHHHMGQSNGAALAKDTIASEQFLKYQEARHRIVHRAFVKCVVPSSKGKDDGYDLTPEERVCVEEFAILYAGFAKKEFLHFSSLYEQYQRDQYEKMRLEVMQQQARKDIQH” the “soluble on expression in E. coli” value was “not soluble”.
With “MEMYFKRMKDEWTGLVEQADPPIRAKAAEIAVAHAHYLSIEFYRIVRIDPHAEEFLSNEQVERQLKSAMERWIINVLSAQVDDVERLIQIQHTVAEVHARIGIPVEIVEMGFRVLKKILYPVIFSSDYSAAEKLQVYHFSINSIDIAMEVMTRAFTFSDSLEHHHHHH” the “soluble on expression in E. coli” value was “not soluble”.
For “MHHHHHHSSGVDLGTENLYFQSMGAASLDVIQEVEYVKEEAKMVYLLECLQKTPPPVLIFAEKKADVDAIHEYLLLKGVEAVAIHGGKDQEERTKAIEAFREGKKDVLVATDVASKGLDFPAIQHVINYDMPEEIENYVHRIGRTGCSGNTGIATTFINKACDESVLMDLKALLLEAKQKVPPVLQVLHCG”, the “soluble on expression in E. coli” value was “soluble”.
With “SSRKSGIGHEASLKRKAEEKLESYRKKIHMKNQAEEKAAEQFRMRLKNKQDEMKLEGDLRRSQRACQQLDVQKNIQVPREAWYWLRLEEETEEDEEEKEQDEDEYKSEDLSVLEKLQILTSYLREEHLYCIWCGTAYEDKEDLSSNCPGPTSADHD” the “soluble on expression in E. coli” value was “soluble”.
For “MDYKFPKDFMFGTSTASYQIEGGWNEDGKGENIWDRLVHTSPEVIKDGTNGDIACDSYHKYKEDVAIIKDLNLKFYRFSISWARIAPSGVMNSLEPKGIAYYNNLINELIKNDIIPLVTMYHWDLPQYLQDLGGWVNPIMSDYFKEYARVLFTYFGDRVKWWITFNEPIAVCKGYSIKAYAPNLNLKTTGHYLAGHTQLIAHGKAYRLYEEMFKPTQNGKISISISGVFFMPKNAESDDDIETAERANQFERGWFGHPVYKGDYPPIMKKWVDQKSKEEGLPWSKLPKFTKDEIKLLKGTADFYALNHYSSRLVTFGSDPNPNFNPDASYVTSVDEAWLKPNETPYIIPVPEGLRKLLIWLKNEYGNPQLLITENGYGDDGQLDDFEKISYLKNYLNATLQAMYEDKCNVIGYTVWSLLDNFEWFYGYSIHFGLVKIDFNDPQRTRTKRESYTYFKNVVSTGKP”, the “soluble on expression in E. coli” value was “soluble”.
In the case of “MSLHSPGKAFRAALTKENPLQIVGTINANHALLAQRAGYQAIYLSGGGVAAGSLGLPDLGISTLDDVLTDIRRITDVCSLPLLVDADIGFGSSAFNVARTVKSMIKAGAAGLHIEDQVGAKRCGHRPNKAIVSKEEMVDRIRAAVDAKTDPDFVIMARTDALAVEGLDAAIERAQAYVEAGAEMLFPEAITELAMYRQFADAVQVPILANITEFGATPLFTTDELRSAHVAMALYPLSAFRAMNRAAEHVYNVLRQEGTQKSVIDTMQTRNELYESINYYQYEEKLDNLFARSQVK”, the “soluble on expression in E. coli” value is reported as “soluble”.
With “MISICLVNTYDKLKKHEIHLRSIARAAPLCYAFNFHLALLDFPFWRSEKEVAEEVANYTTIGEGGKYLLYLAESGKLHLIDKIPAHFGEVVATTSKPDPDKVVNPDTLAAFKSATFLIGLGRRGLPREMLKSAKYHLDVTRKGVSLETCSAIGAIAMLLAVKVVG” the “soluble on expression in E. coli” value was “not soluble”.
With “GCDLERYPLTDLSEETFWNSESNAELALTSLYRGSLTDGVEYNPSDWWSYHGMIMMEHLSDNAFDRRGENNPFFKISSGNLTADNAFIKRYWETSYKRIGYCNRFLVGIQNSSESEKKTRMIAEARFLRATQYFYLASYFKNVPLVENVLTGEEANNVTKTSQADILKWCVTEFTAAAADLPRFSAIPAGEAGRACKQAALAFLGRTCMLQKDWKSGAKAFHDIMELGDNAINANYQELFYPSTGTSNKENIFYIQYLENYLGTGLPQHALSAKDGGWSLVNPAADLYESYEFKDGTPFSYDDPRYDPSNLGKDRDPRLDYTIYYNGAIFMGTEYKMSPDYSAAKKEKLDYTSEASRTGFMMRKYFEESTPINDVQSANGLTPVIRYAEVLLGYLECLVEDNQTITQGILDETINAVRGRASVNMPPVTEVTPAKLREIVRHERRIELAMEGIRYWDIMRWGIAHEVLSQKIWGAPYPGSTQYATTTKEVDPTGNYRWYVGKRAFRNPTDYTWPIPQSEQNINPNLRD” the “soluble on expression in E. coli” value was “soluble”.
In the case of “MSLIKLFLLKLYWAHFSTKQIHQFLMAYPNVIKEEGRKKDSYLCEWVNREENVHLLRKYYAFIKLDHNDIIKELQKLKVSYITYMDSEYPVLLKEIYQFPLLLFYKGNIKLINNMHHLAVVGARDSTSYTQQSLEFLLSNDKSKYLTIVSGLAQGADAMAHQIALKYNLPTIAVLAFGHQTHYPKSTLALRNKIEEKGLVISEYPPHTPIAKYRFPERNRIISGLSKGVLITEAKEQSGSHITIDFALEQNRNVYVLPGSMFNPMTKGNLLRIQEGAKVVLNANDIFEDYYIEGHHHHHH”, the “soluble on expression in E. coli” value is reported as “soluble”.
For “MLVFISNSRLSESEVQKLRDKHLIDDFIQRENKGYDFAAWHDGMEFVGFENLKQYDSVTVMNDTCFGPLWDMAPIYDNYESNPNVDFWGMTNHQGIKAGDIYIHEHLQSYFISFKKRLVESSVFQKFWKSVESFEDVQKVIDNYETLYTKKFRDAGFNYESILNTIPLNDKFFHSNFTIHYPHVLLDTGVPFIKVKTFDLTQHLAPYLLKEIEKRTDYPVELILSHMSDMSLPTPPYLLDRKVIEKSSQTYSDTKKIAVHLHTYYVDLLEDFLKQFENFHFTYDLFLTTDSEDKKAEIQSILDKNGKVARIFITGNRGRDVIPMLKLKDELSAYDYIGHFHTKKSPEYPYWVGDSWRNELFSMLIQPADNIIANLERDDRLGLVIADIPSFFRYTKIVDPWNENRFAEGMNDLWERMDLGRDIDFDKMNTFIMSYGTFIWFKYDALKPLFDLDLQDEEIPAEPIPQHTILHSIERILVYLAWARRYDYAIAKNDIYITPFVDNVVLNIRPDTLPNTYINFDNIGGIKGALKYIIVGPGTAVKYIFRRIKRKFKSLEHHHHHH”, the “soluble on expression in E. coli” value was “soluble”.
In the case of “MSLCRFVAYLGRPTLLENVLVRPKNSIIMQSLHARETKYRTNGDGFGLGWYSPEVSSDPALFTSVYPAWNDRNLLHLTAKIQSPCFFAHVRSASAGGVTNYNCHPFIYGDWMLMHNGEINDFIDVKRHIRHLLDDDIYHWVKGQTDSEHLFGLFLQLAKGRDITQLSVAADVLQETINKILEVIGQFGHSGPSYFNICLTNGKKIIATRYCSHEKKKPLTLHYLIGYVLSTQGLWIKEEGNPAYVVVSSERLNDLDEGWEDVPPQHMILIDENKNIQLRPLQTLGEGHHHHHH”, the “soluble on expression in E. coli” value is reported as “soluble”.
For “MGSSHHHHHHSSGLVPRGSHMDFYKLDEKLKELKRKRVDVSIKSRKLADREIQEVSANRKPRVYSMEDVNDADESVGDTESPEKEKAFHYTVQEYDAWERRHPQGKTGQSQRGGISYDQLAKLSYEKTLRNLATQTQNSSKQDSSADEEDNKNVPKKGRIGKVQKDTKTGKITIADDDKLVNKLAVSLQSESKKRYEARKRQMQNAKTLYGVESFINDKNKQFNEKLSRESKGSE”, the “soluble on expression in E. coli” value was “soluble”.
In the case of “MAAAALREQLNALLSSMFASGLVDEQFQQLQMLQEDGGTPGFVAEVVTLFCDDADRIISELAALLDQPIVDFDKVDAYVHQLKGSSASVGAQKVKFTCMQFRQLCQDKNRDGCIMALAVVRNEFYDLRNKFQTMLQLEQQIQAQQ”, the “soluble on expression in E. coli” value is reported as “soluble”.
In the case of “MSTLYHTCDKIEQRIIWIDCEMTGLDVEKQTLCEIALIVTDSELNTIATGPDIVIHQPKEVLDNMEEWPRNTFHENGLMEKIIASKYSMADAENEVIDFLKLHALPGKSPIAGNSIYMDRLFIKKYMPKLDKFAHYRCIDVSTIKGLVQRWYPDYKHPKKQCTHRAFDDIMESIAELKNYRESIFVKSTASSF”, the “soluble on expression in E. coli” value is reported as “not soluble”.
In the case of “MQTLERFFLFVTGDQPERFEKANSSCADSVILDLENAVSSEKKIIARENALNFMSNDEKVLIAVRAKIVITSRLAGSYPSVDGITTEFMKNELTIQNAIHSCKMGFSGKVCIHPPQISHVNRAFSYLKQEIEWVPQIMRLAQYPHGAFSHEGQMVDKPLLEKAKRILAHSILEHHHHHH”, the “soluble on expression in E. coli” value is reported as “not soluble”.
In the case of “MARFIARTKLNIDDIKEVDEYKALIPENNQYEELKKAIKEQGFLFPVIVNQNRELIDGYTRLRIARELGLTEIPAEVYETGGREEELDIIASLNLKRRHLTKDELVLLIDKIHEMKKRLKKDNIEEQNSGTGARISAIDKENISKNSVTEESREIREELKKLVPDVQINEDTIRKYLQIKKEVPWLVQYIGDEKKNKIGIRKAYEIYTLLSKKNLLDLDKRIPKTELTKLITDKEGRKILERDDLLQLILDHKMAVSQAINKLKTEEKIKQSKKKSRVKTEDEYAETDEEEEDETEEGQRELDENEEYPLLEEWQKAKEEEKQEAEQQLTPQLNVSPNSNTTQVTLEFSNVLKELSNKGFTKLDFNTDVVIAKINDKYYAILLEALKSLERGSKQYKELAEFLVSNNLAVYDPEEDNYIISWRSLNCS”, the “soluble on expression in E. coli” value is reported as “soluble”.
